Assay results published in the DeepSol protein solubility set.

Experiment: soluble on expression in E. coli; label from the status in PepcDB or PDB records

| Sequence | soluble on expression in E. coli |
| --- | --- |
| MGSDKIHHHHHHMGNTINLSRFYKACNPSYTLNMGVMLDRQYYIDFANVRGCKIVEELQRTISRISPDEPTCQLFTGHIGCGKSTELQRLKTELETAGFHVVYFESSQDLDMADIDVSDILLSVARQVCVSLEAIGIKLKPGYFNNLFKEIGDFLQAPIELSGEAEFSLGIAKITAKTKDSTQLRNQLRQYLEPRTNNILQAINEEILEKAVEQLKRRGQKGLVVIVDNLDRVDMRPVASGRTQPEYLFIDRGEQLRRLKCHVVYTIPLALIFSSEYETLKNRLGGGIAPKVLPMVLVRQRDGSDYEPGMSLLRQLVLARAFPEVASQERQQLITELFEQTETLDRLCRVSGGHIRNLLGLLYSCLQRQDPPFSRDCLEAVIKDYRDDLLLAIDECQWELLFDVMQQQSVKGESDYQSLLRSMYLFEYRDPVGRWFGISPALAETEKVLAWRESK | not soluble |
| MRQATRKGLMTMAAATGVIAAAGGAAHADSGAHGTSSGSPGVLSGNTVQAPVHVPVNVCGNTVDVVGVLNPAMGNACANQGGGASGGHGGHGGHGGYGDSGGEGGSHGGSHAGGHATDSPGVGSGNHVEVPIDVPVNVCGNSIDVVGALNPTTGNDCGNGGGGDHSTPPGDHETPPGEPHNPGNPGNPDTPDKPSGPDDETPGDSTDGNRPGAQTVDQPRGDAALAETGSDLPLGLALPVGAGALLAGTVLYRKARASVLEHHHHHH | not soluble |
| MIDRLAMIGVNVKTASREHVARLEKEWEKHLDTIGYASRGTVIIATCNRFEVYLDSPSRLVEDLASSIASPGGEGLVRLQGIDAARHLFRVASGLESQIIGDHEVLGQVRRAWLKSREKGFTTPLLDEVFHRALKTGARVRSESAISSGGVGYSSAAVSLAASLLGGGLDGARVGIVGAGMAAVGIARALCTRWRPRVVAVFNRTPERGWEVAGKCRGVESLVLPLDELAKLINELDALFVAIAGSTNILERGRVERGVSPRVIVDISNPPVTPKVAGRVFHMPEVEEEAKRMMEERLRWIPAAEAIIEEELEALLDALSRRRARESSRSVMRALSILAEREYERTLAGLRNGVDPREAVELALNSYTKKVGGALRRLLEEASDRGQLSLEDIEAILVSEFARIAENSGFKNGSTG | soluble |
| MGSSHHHHHHSSGLVPRGSHMNAPIETDVLILGGGPVGMALALDLAHRQVGHLVVEQTDGTITHPRVGTIGPRSMELFRRWGVAKQIRTAGWPGDHPLDAAWVTRVGGHEVYRIPLGTADTRATPEHTPEPDAICPQHWLAPLLAEAVGERLRTRSRLDSFEQRDDHVRATITDLRTGATRAVHARYLVACDGASSPTRKALGIDAPPRHRTQVFRNILFRAPELRSLLGERAALFFFLMLSSSLRFPLRALDGRGLYRLTVGVDDASKSTMDSFELVRRAVAFDTEIEVLSDSEWHLTHRVADSFSAGRVFLTGDAAHTLSPSGGFGMNTGIGSAADLGWKLAATLRGWAGPGLLATYEEERRPVAITSLEEANVNLRRTMDRELPPGLHDDGPRGERIRAAVAEKLERSGARREFDAPGIHFGHTYRSSIVCGEPETEVATGGWRPSARPGARAPHAWLTPTTSTLDLFGRGFVLLSFGTTDGVEAVTRAFADRHVPLETVTCHAPEIHALYERAHVLVRPDGHVAWRGDHLPAELGGLVDKVRGAA | soluble |
| MAAAPPSADPLDKALIVDVDQWIEQLYECKPLSENQVKTLCEKAKEILEKEPNVQEVRCPVTVCGDVHGQFHDLMELFKMGGKSPDTNYLFMGDYVDRGYYSVETVSLLVCLKIRYKDRVTLLRGNHESRQITQVYGFYDECLRKYGNSNVWKYFTDLFDCFPLTALVDGQIFCLHGGLSPSIDTLDHIRALDRIQEVPHEGPMCDLLWSDPDDRGGWGISPRGAGYTFGQDISETFNHSNGLTLISRAHQLVMEGYNWSHDRNVVTVFSAPNYCYRCGNQAAMVELDDDLKYSFLQFDPAPRRGEPHVTRRTPDYFL | not soluble |
| MAAHFDLTDLQLLVHIGDWHSLTRGAEKSHLSLPAASTRVKNLEEHFGTQLLYRTSQGVTLTPSGEAMLRHARTVMQQVEQMRGDMQEFARGVKGHVRVLANTTAMTEFMPAVLARYLAAHPDVNVELRERLSYLVVRAVADGSADIGVVAGCAPDQKLQFIPYRKDRLVVVTPAGHRLAAEESVAFADTLADDYVGLSEWSAIHPFLVQAAASLGRTFKFRVEVGNFEAVCRMIESGVGIGVIPESAALRYARNLDIALVGLTDEWAVRELQICVKNLDSLPVFARELVETLVADGDAAG | soluble |
| DLIVTAGGKNVSPGPMEDIIRAHPLVSQAMVVGDGKPFVGLLVTLDPDMLKRWKLNHNIAESRTVSEIATDPALRAEIQDAVNNANATVSHSEAIKRFYILDRDLTEEADELTPTLKVKRNVVVRRYADAIDHIYNR | not soluble |
| ADLGHQTLGSNDGWGAYSTGTTGGSKASSSNVYTVSNRNQLVSALGKETNTTPKIIYIKGTIDMNVDDNLKPLGLNDYKDPEYDLDKYLKAYDPSTWGKKEPSGTQEEARARSQKNQKARVMVDIPANTTIVGSGTNAKVVGGNFQIKSDNVIIRNIEFQDAYDYFPQWDPTAGSSGNWASQYDNITINGGTHIWIDHCTFNDGSRPDSTSPKYYGRKYQHHDGQTDASNGANYITMSYNYYHDHDASSIFGSSDSKTSDDGKLKITLHHNRYKNIVQRAPRVRFGQVHVYNNYYEGSTSSSSYPFSYAWGIGKSSKIYAQNNVIDVPGLSAAKTISVFSGGTALYDSGTLLNGTQINASAANGLSSSVGWTPSLHGSIDASANVKSNVINQAGAGKLN | soluble |
| RAIFKISVAKEKEKMDSLEHNDDNQAIALSLVVKNPAVFSKTLAEVRQLLKGHDYVISRTMDSRTNSISLAHSDTVLNENDRVFVITNPQNTAVISSFIGTEVQMDRKQWIPTESHLVSRRFIVTKSELNGKTLGSLQLRKMHGMNVTRVNRAGVEMVALASLPLQVGDRLTVVGSELVMPKVEELIGNSVKRLNEPN | soluble |
| MGSDKIHHHHHHMTARQDLVDLIAAIDAGSGPARNPYWRDLAVDDSVARKAAVLMLFGALDNVPAASGKPLAPADLDVLLLERAHTLDDHPGQVAFPGGGIDPGETPIEAALREAEEETGLDSAGVEVLGAMPQLALPRGNFLVTPVLAWWHSPSPVRVVDYGESAQVFRVPVRDLLDPDNRVMATVSRAGQSFLSPAFVVNKVVVWGFTGMILNELFDHLGWSVPWDRSRLHQIDV | not soluble |
| MDDITDGLRYRISNVIHVSPELTYDGRIMSAGKLLKLMDDLGGIICLRYLDHNSSNLYDNSFNAVVTVAVKGLAFYSPIRLNDIILIRAGLVYVGNTSADILINVVREDLNGAKEHVATAYFTYVRVDKDGKPIKIP | soluble |
| MQSTFRRSTLAALRGFALPSDAISIVPSAADYRRCLLEKIASATRRIYIIALYLQQDEAGQEILDALYAAKAARPELDVVVLVDWFRAQRGLIGAGRQPGNSTWYQAQNLEYDEEVPIYGVPVQTRELFGVLHLKGSVIDDCVIYSGASINNVYLHKLDKYRLDRYHLIESAPLADSFEHLVQREILPSAAVHRLDLQSPPSSRSLRSEIRAFRSDLKRATYDTSAGDKENGQLRVIPLLGVGPRNSLNRAICDLIASSKIQLTICTPYFNLPVAVTREVNRALKRGVKVDIIIGDKTANDFFIDPDEPFKVISALPYLYEISLRRFAHKHQKAIAQQRLNVHLWKHGDNTFHLKGIWVDQRYTLLTGNNLNPRAFNLDLENGLLIDDPQGQWTDPREAEIAQLMRNTQRVNQYDELDTLANYPEGVRKFLKRVSRVRVERLLYRILLEHHHHHH | not soluble |
| MSLEIRRADKDDLDDFVRVYVESYRGLEDYAYTRKRDVKNYFKWLLSRDKDGVMVAEIDGEAVGFVACDTNWFSIFERKKVGEIHELFVLPEFRGEGIGAKLMEKALEYALERNRKVAELWVGRTNYRARRFYASQDLRRPESGGSGSEEGHHHHHH | not soluble |
| MVVKEKVVNEMQEVKEMIDTLVNNGRKALQALESFTQEQIDNIVHEMALAGVDQHMPLAKLAVEETGRGVYEDKCIKNIFATEYIWHSIKKDKTVGIIHEDPHEEIIEIAEPVGVVAGVTPVTNPTSTTMFKALIAIKTRNPIIFAFHPSAQNCSVAAAKTVYDAAVKAGAPKHCIQWIEKPSVEATKQLMNHEGVALVLATGGAGMVKSAYSTGKPALGVGPGNVPCYIEKSAHIKRAVNDLILSKTFDNGMICASEQAIIVDKEIYDDVKTEMITNDCYFVTEEERRKLEKLVINENTCAVNSDIVGKSAQYIAELVGITVPKNTKMLVAEIQGIGAAYPLSREKLSPVLACVKANSLEEGFTYCEEMLNLGGLGHSAVIHSVNKEVQKQFGLRMKACRLIVNAPSSQGGIGDIYNGFIPSLTLGCGSYGKNSVSQNVTATHLLNIKRLANRKKNMQWFKLPPKIYFEKHATAYLANMPNISRAFIVTDPGMVEHGYVDTVAHYLRKHANDVKVEVFFEVEPDPSDETVFKGAEMMRSFQPDVIIALGGGSAMDAAKGMWLFYEYPETTFYGIKQKFLDIRKRTCKYPELGSKAQFVAIPTTSGTGSEVTPFAVITDKKNNIKYPLADYELTPDVAIVDPQFVMTVPPHVTADTGMDVLTHAIEAYVSVLANDYTDGLALKAIDLVFKYLPRAFKDGHDEEAREKMHNASAIAGMAFANAFLGINHSLAHKIGPEFHIPHGRANAILMPHVIRYNAIKPRKHALFPKYEHFVADERYAHIARMLGLPASSVAEGVESLDKAIIDLGKSLNINMSIAGQGVAKDQFEEVVGLLAERAFEDQCTTANPKLPLISELKEIYMKAYKGE | not soluble |
| MSLAIKMLAIDLDGTLLTDSKTILPGTYKALQEAKAAGIKIVLTSGRPLSGIKGYAEELGLSGSEEYAILFNGAVVQNLDGRVLISHDLDFGDFNTLLHMQRLSDVNLDFETPDRFYTLDKRISIRLQIDGAETKNQLWIQDRSDFKKDFTFAKAVYQCDDPDQVDRLWNRLPDWFFQSYAVVRSWPEVVEVGSLAASKGYAVSELASRLGLSNSEVMIFGDQGNDRSMFEIPDFKRVAMGNAIDEIKDLADYVTDTNERDGIAKALRKLVLEGHHHHHH | soluble |
| MNQRLVYVVSDSGGETAELVVKAAASQFHASPIQVKRVPYVEDKTTLAEVVALAKMNRAIIAFTLVVPEMREFLLAEAAREGVVAYDIIGPLIEKMSHLFQLTPRYEPGQVRVLDEDYFKKIEAIEFAVKYDDGRDPRGILRADIVLIGVSRTSKTPLSQYLAHKRLKVANVPIVPEVEPPEQLFRVGPGKCFGLKISPDKLLSIRRERLKSLGLNDQAIYANMDRIKEELAYFDEVVKKIGCDVIDVTNKAVEETASIIMKKLKR | not soluble |
| MGKALLIVNPSSGKEKGKTYQGKTEEVLKKRYDEVEVRLTEKAGDATEFASWASEQGFDAVIAMGGDGTLNETINGLAIHEKRPDFGFIPLGTVNDLARSVGIPLKPEKAIQALEKAKAIPMDIGRIGDQ | not soluble |
| MGSDKIHHHHHHLRFIIVSGPPSAGKTAVMIHAIRHLLKDGIKVAACKIDCLKTSDDKNYRALGIPVAVGLSEYLCPDHFFVANLEEIYAWGSYYGTEVLILETAGLCHRCAPAIQGCLSICVIDNLSGIDTPQKVGPMLSTADVVLISKGDVVSQAEREVFRQRVEMVNPDAAVLSVNGLNGQGSLKLKKIIMESASVKRIEGQELRCSMPAAICSYCTGETMIGSSYQMGNVKKLDFGKF | not soluble |
| MGSDKIHHHHHHMTTTEQELTLTPLRGKSGKAYKGTYPNGECVFIKLNTTPILPALAKEQIAPQLLWAKRMGNGDMMSAQEWLNGRTLTKEDMNSKQIIHILLRLHKSKKLVNQLLQLNYKIENPYDLLVDFEQNAPLQIQQNSYLQAIVKELKRSLPEFKSEVATIVHGDIKHSNWVITTSGMIFLVDWDSVRLTDRMYDVAYLLSHYIPRSRWSEWLSYYGYKNNDKVMQKIIWYGQFSHLTQILKCFDKRDMEHVNQEIYALRKFREIFRKK | not soluble |
